In test [1] the test system is hNEPT. The test is described as follows: TLDA qRT-PCR gene expression in BMP-7-treated hNEPT. As to conditions: BMP-7-treated vs untreated control. It counts as cell-based, human. On the procedure: The expression of 43 genes (including epithelial, acinar, islet and mesenchymal cell markers) was studied in hNEPT preparations (n=8) treated with BMP-7 and untreated controls at the same time point. […] GCK, MAFA and NKX6.1, as well as islet development markers HNF1B and NEUROD1 were also elevated.
hNEPT culture: Human islets were isolated at the DRI's cGMP facility following methods already described54, and hNEPT samples (2-4 ml) were obtained as an isolation byproduct. The cells were washed and seeded on tissue culture-treated plates in FBS- and trypsin inhibitor-supplemented RPMI 1640 medium (Gibco-Life Technologies, Grand Island, N.Y.). After 48 h, floating cells were removed with fresh medium replacement. The following day, cultures were either treated with 100 ng/ml BMP-7 (ProSpec-Tany TechnoGene; Ness Ziona, Israel) or remained in the starting medium as controls. Cells were allowed to grow 4-5 days and then the serum-containing medium was replaced by serum-free Advanced RPMI 1640 (Gibco-Life Technologies, Grand Island, N.Y.). Four to five days later the cells were either subjected to static incubation to evaluate their ability to respond to changing glucose concentration or collected for further assessments (such as C-peptide content, immunohistochemistry or cellular composition) or transplantation.
Quantitative Real Time RT-PCR: Samples were washed in PBS and resuspended in RNA later (Life Technologies—Ambion, Grand Island, N.Y.). RNA was extracted with the mirVana kit (Life Technologies-Applied Biosystems, Grand Island, N.Y.). 2 ng/μl of RNA was used for cDNA synthesis using High-Capacity cDNA Kit (Life Technologies-Applied Biosystems, Grand Island, N.Y.). Quantitative RT-PCR was performed with TaqMan assays (Life technologies—Applied Biosystems, Grand Island, N.Y.) following manufacturer's instructions. RNA expression was calculated as Relative Quantification (RQ) by Applied Biosystems software using the formula RQ=2−ddCT (ddCT=dCT of the sample−dCT of the control). dCT is the number of cycles normalized by endogenous control. Individual reactions were performed with a 7500 Fast Real Time PCR system (Life Technologies). Some experiments were performed using custom-made Taqman® Low Density Microarray (TLDA) cards containing 43 target genes and 3 endogenous genes (ubiquitin C, 18S rRNA and beta actin) and ran in a 7900 Real time PCR cycler (Life Technologies). Cts >35 were considered undetermined.

Test [2] deals with nude rat (RNU) grafts. The experiment in a line: Local BMP-7 delivery to hNEPT or PR2Y1+/ALK3+ cells under kidney capsule of nude rats. It is filed as in vivo. The conditions noted are these: POD +21. From the text:
The nude rat (RNU, Crl:NIH-Foxn1^rnu) is chosen over mice due to the specific BMP-7 local delivery system designed for this purpose, requiring surgical procedures for which a larger animal size would be beneficial. […] The kidney sub-capsular space of rodents is a well-established ectopic site for pancreatic cell (and particularly islet) transplantation^54,55. There are reports of success in the continuous delivery of compounds to pancreatic cells previously implanted under the kidney capsule of rats^38 using Alzet® osmotic pumps that release solution at a rate of 0.5 μl/h for 2 weeks.
While exocrine and endocrine cells coexist in the pancreas, cultured hNEPT lack native ECM for proper compartmentalization, and acinar secretions may be harmful for endocrine cells^37. Acinar cells present in hNEPT after BMP-7 treatment persist in grafts^17. This observation was hypothesized to be one reason behind the sub-optimal performance of BMP-7-treated hNEPT in vivo (see Example 2). […] The first phase of these studies transplants unfractionated hNEPT (0.5-1×10^7 cells) previously grown for 48h in attachment (prior to BMP-7 treatment) under the kidney capsule of nude rats. […] Rats are euthanized at POD +21 and their grafts analyzed by IF for C-peptide as well as the 15 pancreatic marker panel of Example 8. […]

B1: BMP-7: 35 kDa homodimeric protein of the TGF-β superfamily; FDA-approved agent; human mature chain SEQ ID NO:1/2 (protein, listed as Homo sapiens)
chain: IRSTGSKQRSQNRSKTPKNQEALRMANVAENSSSDQRQACKKHELYVSFRDLGWQDWIIAPEGYAAYYCEGECAFPLNSYMNATNHAIVQTLVHFINPETVPKPCCAPTQLNAISVLYFDDSSNVILKKYRNMVVRACGCH
modifications: homodimer; human mature chain of BMP-7 (NCBI Reference Sequence NM_001719.2) comprising peptide from 293-431
Regarding B1, in test [1], the “GCK, MAFA, NKX6.1, HNF1B and NEUROD1 expression” value is reported as “elevated”; the “extra-insular genes KRT-19, CPA1 and PNLIP expression” value is reported as “up-regulation”. In addition, the “ZEB2 expression (up-regulated)” value in test [1] (P<0.05) amounted to 1.6 fold. Further, in test [1] (p<0.01), the “E-cadherin (CDH1) expression (up-regulated)” value is 6 fold and the “EMT marker ZEB1 expression (down-regulated)” value is reported as 0.4 fold. In test [1] (same time point, n=8), the “PDX1 gene expression, average increase” value was 29 fold; the “glucagon gene expression, average increase” value is on record as 92 fold; the “insulin gene expression, average increase” value is reported as 40 fold; the “pancreatic polypeptide (PPY) gene expression, average increase” value is 14 fold. In test [1] (same time point, n=8), the “somatostatin (SST) gene expression, average increase” value was found to be 28 fold. The “islet-like structures within the graft” value in test [2] (PR2Y1+/ALK3+ cell graft, BMP-7 by iPRECIO pump) is “abundant islet-like structures within the graft”. Further, the “in vivo β-like cell formation compared to controls” value in test [2] (unfractionated hNEPT graft, BMP-7 by pump for 14 d) is listed as “Substantial in vivo β-like cell formation”.

For the origin of these results see US11466255B2, “Methods and compositions for converting non-endocrine pancreatic tissue into insulin-producing cells” (UNIVERSITY OF MIAMI, priority 2015, dated 2022).
